B1: ADAM-22dis-Fc (Fc fusion)
chain: TSCGNGFIETGEECDCGTPAECVLEGAECCKKCTLTQDSQCSDGLCCKKCKFQPMGTVCREAVNDCDIRETCSGNSSQCAPNIHKMDGYSCDGVQGICFGGRCKTRDRQCKYIWGQKVTASDKYCYEKLNIEGTEKGNCGKDKDTWIQCNKRDVLCGYLLCTNIGNIPRLGELDGEITSTLVVQQGRTLNCSGGHVKLEEDVDLGYVEDGTPCGPQMMCLEHRCLPVASFNFSTCLSSKEGTICSGNGVCSNELKCVCNRHWIGSDCNTYFPHNDDAKTGITLSGNGVAGTNGSCDKTHTCPPCPAPEAEGAPSVFLFPPKPKDTLMISRTPEVTCVVVDVSHEDPEVKFNWYVDGVEVHNAKTKPREEQYNSTYRVVSVLTVLHQDWLNGKEYKCKVSNKALPAPIEKTISKAKGQPREPQVYTLPPSRDELTKNQVSLTCLVKGFYPSDIAVEWESNGQPENNYKTTPPVLDSDGSFFLYSKLTVDKSRWQQGNVFSCSVMHEALHNHYTQKSLSLSPGK
notes: also called ADAM-22 disintegrin-Fc polypeptide
B2: ADAM-15dis-Fc (Fc fusion)
chain: TSCGNMFVEPGEQCDCGFLDDCVDPCCDSLTCQLRPGAQCASDGPCCQNCQLRPSGWQCRPTRGDCDLPEFCPGDSSQCPPDVSLGDGEPCAGGQAVCMHGRCASYAQQCQSLWGPGAQPAAPLCLQTANTRGNAFGSCGRNPSGSYVSCTPRDAICGQLQCQTGRTQPLLGSIRDLLWETIDVNGTELNCSWVHLDLGSDVAQPLLTLPGTACGPGLVCIDHRCQRVDLLGAQECRSKCHGHGVCDSNRHCYCEEGWAPPDCTTQLKATSSRSCDKTHTCPPCPAPEAEGAPSVFLFPPKPKDTLMISRTPEVTCVVVDVSHEDPEVKFNWYVDGVEVHNAKTKPREEQYNSTYRVVSVLTVLHQDWLNGKEYKCKVSNKALPAPIEKTISKAKGQPREPQVYTLPPSREEMTKNQVSLTCLVKGFYPSDIAVEWESNGQPENNYKTTPPVLDSDGSFFLYSKLTVDKSRWQQGNVFSCSVMHEALHNHYTQKSLSLSPGK
notes: also called ADAM-15 disintegrin-Fc polypeptide
B3: ADAM-21dis-Fc (Fc fusion)
chain: TSCGNGVVEREEQCDCGSVQQCEQDACCLLNCTLRPGAACAFGLCCKDCKFMPSGELCRQEVNECDLPEWCNGTSHQCPEDRYVQDGIPCSDSAYCYQKRCNNHDQHCREIFGKDAKSASQNCYKEINSQGNRFGHCGINGTTYLKCHISDVFCGRVQCENVRDIPLLQDHFTLQHTHINGVTCWGIDYHLRMNISDIGEVKDGTVCGPGKICIHKKCVSLSVLSHVCLPETCNMKGICNNKHHCHCGYGWSPPYCQHRGYGGSIDSGPASAKRSCDKTHTCPPCPAPEAEGAPSVFLFPPKPKDTLMISRTPEVTCVVVDVSHEDPEVKFNWYVDGVEVHNAKTKPREEQYNSTYRVVSVLTVLHQDWLNGKEYKCKVSNKALPAPIEKTISKAKGQPREPQVYTLPPSRDELTKNQVSLTCLVKGFYPSDIAVEWESNGQPENNYKTTPPVLDSDGSFFLYSKLTVDKSRWQQGNVFSCSVMHEALHNHYTQKSLSLSPGK
notes: also called ADAM-21 disintegrin-Fc polypeptide
B4: ADAM-23dis-Fc (Fc fusion)
chain: TSCGNGYVEAGEECDCGFHVECYGLCCKKCSLSNGAHCSDGPCCNNTSCLFQPRGYECRDAVNECDITEYCTGDSGQCPPNLHKQDGYACNQNQGRCYNGECKARDNQCQYIWGTKAAGSDKFCYEKLNTEGTEKGNCGKDGDRWIQCSKHDVFCGFLLCTNLTRAPRIGQLQGEIIPTSFYHQGRVIDCSGAHVVLDDDTDVGYVEDGTPCGPSMMCLDRKCLQIQALNMSSCPLDSKGKVCSGHGVCSNEATCICDFTWAGTDCSIRDPVRNLHPPKDEGPKGPSATNRSCDKTHTCPPCPAPEAEGAPSVFLFPPKPKDTLMISRTPEVTCVVVDVSHEDPEVKFNWYVDGVEVHNAKTKPREEQYNSTYRVVSVLTVLHQDWLNGKEYKCKVSNKALPAPIEKTISKAKGQPREPQVYTLPPSRDELTKNQVSLTCLVKGFYPSDIAVEWESNGQPENNYKTTPPVLDSDGSFFLYSKLTVDKSRWQQGNVFSCSVMHEALHNHYTQKSLSLSPGK
notes: also called ADAM-23 disintegrin-Fc polypeptide
B5: ADAM-17dis-Fc (Fc fusion)
chain: TSCGNSRVDEGEECDPGIMYLNNDTCCNSDCTLKEGVQCSDRNSPCCKNCQFETAQKKCQEAINATCKGVSYCTGNSSECPPPGNAEDDTVCLDLGKCKDGKCIPFCEREQQLESCACNETDNSCKVCCRDLSGRCVPYVDAEQKNLFLRKGKPCTVGFCDMNGKCEKRVQDVIERFWDFIDQLSINTFGKFLADNRSCDKTHTCPPCPAPEAEGAPSVFLFPPKPKDTLMISRTPEVTCVVVDVSHEDPEVKFNWYVDGVEVHNAKTKPREEQYNSTYRVVSVLTVLHQDWLNGKEYKCKVSNKALPAPIEKTISKAKGQPREPQVYTLPPSRDELTKNQVSLTCLVKGFYPSDIAVEWESNGQPENNYKTTPPVLDSDGSFFLYSKLTVDKSRWQQGNVFSCSVMHEALHNHYTQKSLSLSPGK
notes: also called ADAM-17 disintegrin-Fc polypeptide
B6: ADAM-20dis-Fc (Fc fusion)
chain: TSCGNLVVEEGEECDCGTIRQCAKDPCCLLNCTLHPGAACAFGICCKDCKFLPSGTLCRQQVGECDLPEWCNGTSHQCPDDVYVQDGISCNVNAFCYEKTCNNHDIQCKEIFGQDARSASQSCYQEINTQGNRFGHCGIVGTTYVKCWTPDIMCGRVQCENVGVIPNLIEHSTVQQFHLNDTTCWGTDYHLGMAIPDIGEVKDGTVCGPEKICIRKKCASMVHLSQACQPKTCNMRGICNNKQHCHCNHEWAPPYCKDKGYGGSADSGPPPKNNMEGLNVMGKLRGSCDKTHTCPPCPAPEAEGAPSVFLFPPKPKDTLMISRTPEVTCVVVDVSHEDPEVKFNWYVDGVEVHNAKTKPREEQYNSTYRVVSVLTVLHQDWLNGKEYKCKVSNKALPAPIEKTISKAKGQPREPQVYTLPPSRDELTKNQVSLTCLVKGFYPSDIAVEWESNGQPENNYKTTPPVLDSDGSFFLYSKLTVDKSRWQQGNVFSCSVMHEALHNHYTQKSLSLSPGK
notes: also called ADAM-20 disintegrin-Fc polypeptide

These binders were tested against T1, integrin α5β1 (human, UniProt P08648 42-1049; P05556 21-798) (assay: flow cytometry on HMVEC-d; dis-Fc binding with 5-8 fold excess mAb SAM-1 (competitor) vs control mAb).
T1 construct: whole, on cells; Native integrin on HMVEC-d; also called CD49e
Procedure: (§1) Prior to performing binding studies, HMVEC-d were removed from culture vessels using trypsin-EDTA. The cells were washed in media containing serum and resuspended in binding medium which consisted of PBS containing 1 mM Ca2+, 1 mM Mg2+ and 0.5 mM Mn2+, 0.1% sodium azide, 10% Normal goat serum, 2% rabbit serum and 2% fetal bovine serum.
(§2) One hundred microliters of cell suspension, containing 200,000 to 500,000 HMVEC-d, were added to 12×75 mm plastic test tubes. Monoclonal antibodies specific for one of the integrins, or a control monoclonal antibody (CD29 or M15), were added to the cell suspensions at a concentration of 100 μg/ml (5-8 fold mass excess) 15 minutes prior to addition of disintegrin-Fc fusion proteins. ADAM disintegrin-Fc polypeptides and control Fc fusion polypeptides (P7.5II.Fc) were added, at various concentrations from 12.5 to 20 μg/ml, to the cell suspensions and incubated for 1 hour at 30° C. Unbound Fc polypeptides were washed away by centrifugation of cells in 2 mls of binding media. The washed cell pellets were resuspended in binding medium and then incubated at 30° C. for 30 minutes with goat anti-human Fc-specific biotinylated antibody at a concentration of 2.5 μg/ml for 30 minutes. After centrifugation and washing of the cell pellets, the cells were resuspended in binding medium and bound anti-human Fc-biotin was detected by adding streptavidin-phycoerythrin conjugate to the cell suspension at a 1:1000 dilution (1 μg/ml) and incubating at 30° C. for 30 minutes. The unbound streptavidin-phycoerythrin was washed away and the cells were resuspended in binding medium containing propidum iodide. The level of fluorescent binding (disintegrin-Fc binding) was determined by flow cytometry.
(§3) The level of binding of each ADAM disintegrin-Fc polypeptide was determined in the presence of anti-integrin specific mAb and in the presence of control mAb. Both the intensity of binding (MFI) and the percentage of cells binding were determined. Percent inhibition was calculated using the formula [1-(MFI control-MFI integrin mAb)/MFI control.

percent inhibition of binding [%] | Binder
36 | B1
30 | B2
54 | B3
49 | B4

These binders were tested against T2, integrin αvβ3 (human, UniProt P06756 31-1048; P05106 27-788) (assay: flow cytometry on HMVEC-d; dis-Fc binding with 5-8 fold excess mAb LM609 (competitor) vs control mAb).
T2 construct: whole, on cells; Native integrin on primary human dermal microvascular endothelial cells (HMVEC-d); also called CD51/61
Procedure: as §1, §2, §3

percent inhibition of binding [%] | Binder
42 | B1
60 | B2
50 | B5
58 | B6

Reference: US20020042368A1 (IMMUNEX, published 2002)
